Reference: patent US20140044730A1 (Regeneron, published 2014)

Assays:
[1] = biological target: T1, human PCSK9 with a C-terminal myc-myc-hexahistidine tag (human, UniProt Q8NBP7 31-692, limits assumed); test: SPR 25C pH 5.75, mAb captured;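 note: biacore surface with anti-human Fc antibody capturing the antibodies, PCSK9 as analyte, one-to-one kinetic fit, KD as kd over ka, half-life derived from kd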
T1 construct: also called hPCSK9-mmH; hPCSK9-mmh; not shown: C-terminal myc-myc-hexahistidine tag

[2] = biological target: T1, human PCSK9 with a C-terminal …; test: blocking ELISA pH 7.2, 500 pM hPCSK9-mmH vs coated hLDLR EGFA-hFc, exp #1
From the text: The equilibrated sample solutions were then transferred to the LDLR EGFA-hFc coated plate prepared as described above.

[3] = biological target: T1, human PCSK9 with a C-terminal …; test: SPR 25C, mAb captured;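 note: biacore CM4 surface bearing anti-human Fc antibody capturing the mAbs, PCSK9 binding and release rates fitted with a one-to-one model, KD and half-life derived from those rates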
Method: (§1) A Biacore CM4 sensor chip was derivatized with a monoclonal mouse anti-human Fc antibody to capture human antibodies. The histidine substitution variant anti-PCSK9 antibodies were captured onto the anti-human Fc sensor surface from culture medium after transient expression in Chinese hamster ovary (CHO) cells. […] Kinetic association (kₐ) and dissociation (kd) rate constants were determined by processing and fitting the data to a 1:1 binding model using Scrubber 2.0 curve fitting software. Binding dissociation equilibrium constants (KD) and dissociative half-lives (t_{1/2}) were calculated from the kinetic rate constants as: KD (M)=kd/kₐ; and t_{1/2} (min)=(In2/(60*kd).

[4] = biological target: T1, human PCSK9 with a C-terminal …; test: SPR 25C pH 7.2, mAb captured;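 note: biacore SPR, antibodies captured on anti-human Fc CM4 chip with PCSK9 flowed as analyte, rate constants from a one-to-one kinetic fit, KD and half-life derived from them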
Method: as §1

[5] = biological target: human PCSK9 with a C-terminal myc-myc hexahistidine tag and a D374Y mutation (human, UniProt Q8NBP7 31-692, limits assumed); test: cell-based or functional assay
[6] = biological target: recombinant cynomolgus monkey PCSK9 with a C-terminal myc-myc hexahistidine tag (cynomolgus monkey, UniProt A8T662 31-692 (Macaca nemestrina entry), limits assumed); test: cell-based or functional assay
[7] = biological target: T1, human PCSK9 with a C-terminal …; test: SPR 25C pH 7.4, purified mAb captured
Method: as §1
All measurements were taken at 25° C.

[8] = biological target: T1, human PCSK9 with a C-terminal …; test: SPR 25C pH 6.0, purified mAb captured
Method: as §1
(§2) Also included in these experiments were several control/comparator antibodies. All measurements were taken at 25° C.

[9] = biological target: T1, human PCSK9 with a C-terminal …; test: SPR 25C, purified mAb captured
Method: as §1, §2

| Binder | Kd [1] [nM] | t½ [1] [min] | KD ratio pH 5.75/pH 7.2 [3] | t½ ratio pH 5.75/pH 7.2 [3] | Kd [4] [nM] | t½ [4] [min] | other results |
| --- | --- | --- | --- | --- | --- | --- | --- |
| VH-D108H (antibody, V domains shown, His variant of 300N) VH: EMQLVESGGGLVQPGGSLRLSCAASGFTFSSHWMKWVRQAPGKGLEWVANINQDGSEKYYVDSVKGRFTISRDNAKNSLFLQMNSLRAEDTAVYYCARDIVLMVYDMHYYYYGMDVWGQGTTVTVSS VL: not shown | 4.67 | 7 | 1.73 | 0.24 | 2.69 | 28 | IC50 [2]: 0.334 nM; IC50, LDL uptake in HepG2 cells, 2 nM hPCSK9-D374Y-mmH [5]: 2.6 nM; IC50, LDL uptake in HepG2 cells, 50 nM MfPCSK9-mmH [6]: 12.7 nM |
| VH-M107H (antibody, V domains shown, His variant of 300N) VH: EMQLVESGGGLVQPGGSLRLSCAASGFTFSSHWMKWVRQAPGKGLEWVANINQDGSEKYYVDSVKGRFTISRDNAKNSLFLQMNSLRAEDTAVYYCARDIVLMVYDHDYYYYGMDVWGQGTTVTVSS VL: not shown | 29.5 | 0.2 | 4.02 | 0.02 | 7.34 | 13 | IC50 [2]: 0.704 nM; IC50, LDL uptake in HepG2 cells, 2 nM hPCSK9-D374Y-mmH [5]: 4.6 nM; IC50, LDL uptake in HepG2 cells, 50 nM MfPCSK9-mmH [6]: 15.9 nM |
| VH-V101H (antibody, V domains shown, His variant of 300N) VH: EMQLVESGGGLVQPGGSLRLSCAASGFTFSSHWMKWVRQAPGKGLEWVANINQDGSEKYYVDSVKGRFTISRDNAKNSLFLQMNSLRAEDTAVYYCARDIHLMVYDMDYYYYGMDVWGQGTTVTVSS VL: not shown | 10.5 | 3 | 1.43 | 0.14 | 7.33 | 25 | IC50 [2]: 0.857 nM; IC50, LDL uptake in HepG2 cells, 2 nM hPCSK9-D374Y-mmH [5]: 4.7 nM; IC50, LDL uptake in HepG2 cells, 50 nM MfPCSK9-mmH [6]: 17.2 nM |
| VK-L97H (antibody, V domains shown, His variant of 300N) VH: EMQLVESGGGLVQPGGSLRLSCAASGFTFSSHWMKWVRQAPGKGLEWVANINQDGSEKYYVDSVKGRFTISRDNAKNSLFLQMNSLRAEDTAVYYCARDIVLMVYDMDYYYYGMDVWGQGTTVTVSS VL: not shown | 12.8 | 8 | 1.94 | 0.18 | 6.61 | 45 |  |
| VK-L101H (antibody, V domains shown, His variant of 300N) VH: EMQLVESGGGLVQPGGSLRLSCAASGFTFSSHWMKWVRQAPGKGLEWVANINQDGSEKYYVDSVKGRFTISRDNAKNSLFLQMNSLRAEDTAVYYCARDIVLMVYDMDYYYYGMDVWGQGTTVTVSS VL: not shown | 3.3 | 8 | 1.84 | 0.25 | 1.8 | 33 |  |
| VK-M94H (antibody, V domains shown, His variant of 300N) VH: EMQLVESGGGLVQPGGSLRLSCAASGFTFSSHWMKWVRQAPGKGLEWVANINQDGSEKYYVDSVKGRFTISRDNAKNSLFLQMNSLRAEDTAVYYCARDIVLMVYDMDYYYYGMDVWGQGTTVTVSS VL: not shown | 11.3 | 7 | 3.21 | 0.23 | 3.53 | 29 |  |
| VK-N33H (antibody, V domains shown, His variant of 300N) VH: EMQLVESGGGLVQPGGSLRLSCAASGFTFSSHWMKWVRQAPGKGLEWVANINQDGSEKYYVDSVKGRFTISRDNAKNSLFLQMNSLRAEDTAVYYCARDIVLMVYDMDYYYYGMDVWGQGTTVTVSS VL: not shown | 369 | 0.3 | 38.1 | 0.12 | 9.69 | 2 |  |
| VK-N35H (antibody, V domains shown, His variant of 300N) VH: EMQLVESGGGLVQPGGSLRLSCAASGFTFSSHWMKWVRQAPGKGLEWVANINQDGSEKYYVDSVKGRFTISRDNAKNSLFLQMNSLRAEDTAVYYCARDIVLMVYDMDYYYYGMDVWGQGTTVTVSS VL: not shown | 2.09 | 14 | 1.98 | 0.29 | 1.06 | 48 |  |
| VK-N36H (antibody, V domains shown, His variant of 300N) VH: EMQLVESGGGLVQPGGSLRLSCAASGFTFSSHWMKWVRQAPGKGLEWVANINQDGSEKYYVDSVKGRFTISRDNAKNSLFLQMNSLRAEDTAVYYCARDIVLMVYDMDYYYYGMDVWGQGTTVTVSS VL: not shown | 1.54 | 10 | 1.61 | 0.24 | 0.952 | 42 |  |
| VK-P100H (antibody, V domains shown, His variant of 300N) VH: EMQLVESGGGLVQPGGSLRLSCAASGFTFSSHWMKWVRQAPGKGLEWVANINQDGSEKYYVDSVKGRFTISRDNAKNSLFLQMNSLRAEDTAVYYCARDIVLMVYDMDYYYYGMDVWGQGTTVTVSS VL: not shown | 12.8 | 0.4 | 1.44 | 0.1 | 8.9 | 4 |  |
| VK-Q27H (antibody, V domains shown, His variant of 300N) VH: EMQLVESGGGLVQPGGSLRLSCAASGFTFSSHWMKWVRQAPGKGLEWVANINQDGSEKYYVDSVKGRFTISRDNAKNSLFLQMNSLRAEDTAVYYCARDIVLMVYDMDYYYYGMDVWGQGTTVTVSS VL: not shown | 2.85 | 4 | 0.57 | 0.42 | 5.01 | 9 |  |
| VK-Q95H (antibody, V domains shown, His variant of 300N) VH: EMQLVESGGGLVQPGGSLRLSCAASGFTFSSHWMKWVRQAPGKGLEWVANINQDGSEKYYVDSVKGRFTISRDNAKNSLFLQMNSLRAEDTAVYYCARDIVLMVYDMDYYYYGMDVWGQGTTVTVSS VL: not shown | 1.97 | 6 | 1.48 | 0.23 | 1.33 | 27 |  |
| VK-Q98H (antibody, V domains shown, His variant of 300N) VH: EMQLVESGGGLVQPGGSLRLSCAASGFTFSSHWMKWVRQAPGKGLEWVANINQDGSEKYYVDSVKGRFTISRDNAKNSLFLQMNSLRAEDTAVYYCARDIVLMVYDMDYYYYGMDVWGQGTTVTVSS VL: not shown | 0.805 | 20 | 0.88 | 0.41 | 0.914 | 49 |  |
| VK-S28H (antibody, V domains shown, His variant of 300N) VH: EMQLVESGGGLVQPGGSLRLSCAASGFTFSSHWMKWVRQAPGKGLEWVANINQDGSEKYYVDSVKGRFTISRDNAKNSLFLQMNSLRAEDTAVYYCARDIVLMVYDMDYYYYGMDVWGQGTTVTVSS VL: not shown | 7.63 | 6 | 0.06 | 22.2 | 138 | 0 |  |
| VK-S57H (antibody, V domains shown, His variant of 300N) VH: EMQLVESGGGLVQPGGSLRLSCAASGFTFSSHWMKWVRQAPGKGLEWVANINQDGSEKYYVDSVKGRFTISRDNAKNSLFLQMNSLRAEDTAVYYCARDIVLMVYDMDYYYYGMDVWGQGTTVTVSS VL: not shown | 1.74 | 12 | 1.84 | 0.26 | 0.948 | 48 |  |
| VK-T99H (antibody, V domains shown, His variant of 300N) VH: EMQLVESGGGLVQPGGSLRLSCAASGFTFSSHWMKWVRQAPGKGLEWVANINQDGSEKYYVDSVKGRFTISRDNAKNSLFLQMNSLRAEDTAVYYCARDIVLMVYDMDYYYYGMDVWGQGTTVTVSS VL: not shown | 12 | 0.4 | 1.25 | 0.1 | 9.63 | 5 |  |
| VK-T102H (antibody, V domains shown, His variant of 300N) VH: EMQLVESGGGLVQPGGSLRLSCAASGFTFSSHWMKWVRQAPGKGLEWVANINQDGSEKYYVDSVKGRFTISRDNAKNSLFLQMNSLRAEDTAVYYCARDIVLMVYDMDYYYYGMDVWGQGTTVTVSS VL: not shown | 1.21 | 16 | 1.17 | 0.33 | 1.03 | 49 |  |
| VK-Y37H (antibody, V domains shown, His variant of 300N) VH: EMQLVESGGGLVQPGGSLRLSCAASGFTFSSHWMKWVRQAPGKGLEWVANINQDGSEKYYVDSVKGRFTISRDNAKNSLFLQMNSLRAEDTAVYYCARDIVLMVYDMDYYYYGMDVWGQGTTVTVSS VL: not shown | 4420 | 0.2 | 72.3 | 0.54 | 61.2 | 0 |  |
| 316P(v2) (antibody, IgG4, V domains shown, also called 316(v2)) VH: EVQLVESGGGLVQPGGSLRLSCAASGFTFNNYAMNWVRQAPGKGLDWVSTISGSGGTTNYADSVKGRFIISRDSSKHTLYLQMNSLRAEDTAVYYCAKDSNWGNFDLWGRGTLVTVSS VL: not shown |  |  |  |  |  |  | Kd [7]: 0.566 nM; koff [7]: 0.000292 s⁻¹; kon [7]: 517000 M⁻¹ s⁻¹; t½ [7]: 39.5 min; Kd [8]: 0.23 nM; koff [8]: 0.000149 s⁻¹; kon [8]: 649000 M⁻¹ s⁻¹; t½ [8]: 77.5 min; KD ratio pH 6.0/pH 7.4 [9]: 0.41; ka ratio pH 6.0/pH 7.4 [9]: 1.25; kd ratio pH 6.0/pH 7.4 [9]: 0.51; t½ ratio pH 6.0/pH 7.4 [9]: 1.96 |
